Data taken from US20260132194A1 (XBIOTECH, published 2026).

Biological target: T1, recombinant human interleukin 1 alpha (IL-1α) (human, UniProt P01583 113-271)
T1 sequence (looked up): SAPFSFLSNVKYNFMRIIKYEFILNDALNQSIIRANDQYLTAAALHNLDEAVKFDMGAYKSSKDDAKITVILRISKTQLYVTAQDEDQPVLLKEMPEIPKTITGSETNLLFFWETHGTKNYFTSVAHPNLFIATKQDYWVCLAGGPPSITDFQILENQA
Experiment: cell-based or functional assay

HUVEC-based potency assay IC50 (ICAM-1 expression by flow cytometry): 5 ng/mL
B1: XIA14 human monoclonal antibody (antibody, V domains shown)
VH: QVQLVQSGAEVKKPGSSVKVSCKASGGRFTNYAILWVRQAPGQGLQWLGGIIPIFDETDHAQDFQDRLTITVDESMTTAYMELSSLRPEDTAIYYCATGSNSYYGLYWGQGTLVTVSS
VL: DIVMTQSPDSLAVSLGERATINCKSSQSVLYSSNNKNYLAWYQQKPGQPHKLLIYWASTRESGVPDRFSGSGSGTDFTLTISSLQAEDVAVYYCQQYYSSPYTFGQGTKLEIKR
